The text below walks through data of the DeepSol protein solubility set.

This data set can be described thus: soluble on expression in E. coli; label from the status in PepcDB or PDB records.
For “MTICSVNNVTKSFGGNIIFENISLEIKNGERVGLVGRNGSGKTTIFQLLTGMESLDAGAIHMKKGTRIGHVAQIPKFDESMTVYEVLSSAFKIEKELEREMRTLEKDMAEEQESSVLQKLMERYGIIQEKFAFLGGYEIEANIMKVANGLQVTELFPRSFLELSGGEQTKVSLAYMLLQKPDLLLLDEPTNHLDLFAVEWLEQFLKEYNGTVMVISHDRYFLDEVVTKIFDLEDGEIHVYHTNYSRFVEEKEERLLQEFQAYQEQQKKIKKMKEAIKRLREWANQANPPNEGLHKRARSMERALERMQKLKKPILERKQIGLQFEGQDRSGKDVVVIKEVSKGFADHPLFNEVNLHVRFQERAAIVGRNGTGKTTLLKLLLEEIEPDAGEIRIGSSVKIGYLSQHAYGNMKSDVLEAFREYVAVTEGEARHILAKFLFYGPAVFKKVTQLSGGEKMRLRLAQLMYQDINFLILDEPTNHLDIESREVLEEALEQYNGTILAVSHDRYFLNKLFEKTYWIDEHKLFEFAGNYAWARQKWEERLETQVIKQQRQGRKSIETAPVKKKEARNIEEIETELMHVEEDIYTLECTMEHVVDIKRLEQLYEEKTKKELLRAELYNELENIVE”, the “soluble on expression in E. coli” value is “not soluble”. For the sequence “MTIGTLPFDQETIRQRASEVNEAAWLTEFRLQALAQATELPMPTPDKTKIDKWDFIGKGDAAKQEPVSSLTELPEAVKNLIDENNSVLVQRTGTTAFVSLADEAKEKGVIFTDIVTAATEHAELVQKYLMKDGVKVDEHRLTALHAALINGGAFVYVPKNVVLETPLQAVFLVDGEEANVYNHVLFVADANSTATYVENYVANENAKGIANIVAEVIVEQGAQVKFGAVDLLAKDVTTYVNRRGVVGRDGRIDWALGLMNDGNTISENVTNLMGDGSYADTKTVTIGRGNQTQNFTTKVVHFGKHSEGWILKHGVQKDSATSIFNGIGKIEHGASKSNAQQSSRVLMLDEKARGDANPILLIDEDDVMAGHAASVGRVDPVQLYYLMSRGIPKREAERLVIHGFLAPVVNELPIEGVKAQLVEVIERKVR”, the “soluble on expression in E. coli” value is “not soluble”. Regarding “MTIHIYNTLTRQKEEFTPLEENKVKMYVCGPTVYNYIHIGNARPPMVFDTVRRYLEYKGYDVQYVSNFTDVDDKLIKAANELGEDVPTIADRFVEAYFEDVTALGCKHATVHPRVTENMDIIIEFIQELVNKGYAYESEGDVYFRTKEFEGYGKLSHQPIADLRHGARIEVGEKKQDPLDFALWKAAKEGEIFWESPWGQGRPGWHIECSAMARKYLGDTIDIHAGGQDLAFPHHENEIAQSEALTGKTFARYWMHNGYININNEKMSKSLGNFILVHDIIKQYDPQLIRFFMLSVHYRHPINFSEELLQSTNNGLERIKTAYGNLKHRMESSTDLTDHNEKWLADLEKFQTAFEEAMNDDFNTANAITELYNVANHANQYLLEEHTSTVVIEAYVKQLETLFDILGLELAQEELLDEEIEALIQKRIEARKNRDFALSDQIRDDLKDRNIILEDTAQGTRWKRG”, the “soluble on expression in E. coli” value was “soluble”. With “MTIPTSYLNHTDAEAARKARATYRDGLVAPTSGIAPGFTQANMIVLPRDWAFDFLLYAQRNPKPCPVLDVSDPGSPTTLLAPGADLRTDLPLYRIWRDGKLAEETADATSAWAERDDLVAFLIGCSFTFETPMVEAGIEIRHMTDKSNVPMYLTNRPCRPAGRLKGNMVVSMRPIPASRVADAATISGRFPAVHGAPVHVGAPEQIGISDLSKPDFGDAVRIEPGEVPVFWACGVTPQAAVMASGVPFAITHAPGHMFITDIPDTAYHALEHHHHHH”, the “soluble on expression in E. coli” value is recorded as “soluble”. On to “MTISEVSKKYELSADTLRYYERIGLIPPVNRNKSGIRSFTEEDCEWVNFIKCMRGAGLSIETLIEYVAMFQQGSSTIKARKELLIEQRNQLAKRIEEMQKTLERLNFKIDRYEEGIIEKEKVLKSSRNKKMEAVSYE”, for which the “soluble on expression in E. coli” value was “not soluble”.

Turning to “MTISTTSTPHDAVFKSFLRHPDTARNFINIHLPAPLRKLCDLTTLKLEPNSFIDEDLRQYYSDLLWSVKTQEGVGYIYVVIEHQSKPEELMAFRMMRYSIAAMQNHLDAGYKELPLVIPMLFYHGCRSPYPYSLCWLDEFAEPAIARKIYSSAFPLVDITVVPDDEIMQHRKMALLELIQKHIRQRDLLGLVDQIVSLLVTGNTNDRQLKALFNYVLQTGDAQRFRAFIGEITERAPQEKEKLMTIADRLREEGAMQGKHEEALRIAQEMLDRGLDRELVMMVTRLSPDDLIAQSH”, the “soluble on expression in E. coli” value was “not soluble”. For the sequence “MTIYFLFGKTGSGKSYIGELLRQLSIVHIDGDNHITQKMRDCLIEDEQMTPEMIDEFVDVLIDVIKTQKTKTPNESFVISQAMYLDKHRLKLLNAIPELEFVMIDVIPVLRASRITNRFRNQESKVSLRYATRMDAFFEYPSHETIRLENNQSSDETLIEQIREKMPALFNMESKEELNSGIQLQFALEHHHHHH”, the “soluble on expression in E. coli” value is reported as “soluble”. For the sequence “MTKEEMRNAILDIFQSNPQSVMNYKQVSHLMGVEAAPQKLMVNSLMEDMAVDDILHEIERGRYRYNALGLIVIGTFERRFNGRNSFIPEGGGTPIFIAERNSAHAMDGDKVKVQLFAKRRGRAPEAAVIEIIEQKQATFVGKIQINRDFAFLVTEDRTLANDIFIPKDNLGNAKNGDKVIVRILEWPEQSKNPIGEVQAVLGPAGDNDAEMNAILAEFGLPYVYPQEVEEAADRLDGKITEEELARREDFRSILTFTIDPKDAKDFDDAISFRPLEDDCYEVGVHIADVSHYVTEGGIIDQEAYNRATSIYLVDRTIPMLPERLCNDLCSLRPDEEKYAYSCIFRMNDEAKVLDYRICHSVIKSDRRFAYEEAQAVIETGEGDCKEAILKLNELAQRLRKERFQNGAIAFERKEVRFEIDEKGRPLGVIVKESKEANKLIEEFMLLANRTVARHIGEETQGKRAKTFVYRIHDLPDPDKLETLSDFIRRFGYKLRTTGSNVEVSKSINSLLDNIQNKPEENLISTVAIRSMAKAIYSTDNIGHYGLAFDFYTHFTSPIRRYPDLMVHRLLTKYLSGGSSVDKNDYEEKCKHSSAMEQLAASAERASIKYKQVEFMSEHLGKVFDGVISGVTEWGLYVELKENMCEGLIPIRCLDDDYYEYDDKNFCLIGRRYRHRYSLGDAITVRVAQANLDRKQLDFEPVS”, the “soluble on expression in E. coli” value was “not soluble”. Turning to “MTKGSPGDTPDKASDRAARGASDASDASDAWRRWHEQRVATVSAPYGPLALTGTHWLEDHPDGQLPDIPGRWTTDGDAVLLTAGRADGLTVDGRLLDGEARLTADRGPVGAARVARGERRLVVLVREGLWGVRDFDPAAPARRAFRGIAATPYDPRWSVPGRFTPYDTGRRSVRVPNADGRERGLALGGELAFELDGRAHTLQVGVEDDGSLWAVFADATSGSTSYRFRFLRPAAPDAEGRTTVDLNRALLPPCAFADHFVCPFPPPGNTLGARVEAGERELRLEHHHHHH”, the “soluble on expression in E. coli” value is given as “soluble”. Consider “MTKIFAYAIREDEKPFLKEWEDAHKDVEVEYTDKLLTPETVALAKGADGVVVYQQLDYIAETLQALADNGITKMSLRNVGVDNIDMAKAKELGFQITNVPVYSPNAIAEHAAIQAARILRQDKAMDEKVARHDLRWAPTIGREVRDQVVGVVGTGHIGQVFMQIMEGFGAKVITYDIFRNPELEKKGYYVDSLDDLYKQADVISLHVPDVPANVHMINDESIAKMKQDVVIVNVSRGPLVDTDAVIRGLDSGKIFGYAMDVYEGEVGIFNEDWEGKEFPDARLADLIARPNVLVTPHTAFYTTHAVRNMVVKAFDNNLELVEGKEAETPVKVG”, for which the “soluble on expression in E. coli” value is on record as “soluble”. On to “MTKKIVLAGGTGFIGQYLQQRFEENGDEVVIISRRAPHVSWDDSEAVREALEGADMLVNLAGKSVNCRYNEQNKKAILQSRIDTTNILGEAVLACERPPKLWLNSSTATIYRHAEDRAMTEANGELGSGFSENVAKAWEEEFFSFQLPNTRQAALRISIVLGGDGGALTPYRYLTKFGLGGKQGSGKQMVSWIHVEDVFRVIRFIEEQEALEGVINCTSPQPVSNKVLTTAIRRAMNVKVGLPATAWMLEIGTFLLRTESELILKSRWVLPERLLQAGFTFQYETIDDALSEILVQSKSASHLLEHHHHHH”, for which the “soluble on expression in E. coli” value was “not soluble”. The result for “MTKKYDLHCHSTASDGVLSPTELVHRAYAQGVNVLALCDHDTIAGIDEAEIAAKEVGIELITGVEISTNWEGRGIHIVGLNFDKTHPKMTALLQSQKALREKRAVEIGDKLEKAGIPNAYDGAKALADGEVTRAHYARYLVQIGKVSNDGQAFKRYLGQGKSAFVKAEWADIPTAIETIHAAGGIAIIAHPLRYNMTGKWVRKLIVDFKAWGGDGMEMADCGQTKDQRQMLARWAKEFDLQGSVGSDFHFPCGWIELGKNLDLVDSVIPVWEKFLEHHHHHH” reads “soluble”. Regarding “MTKLGYVMTKSSAKNFKIYINGSAKGFKNIIISGAKAWNPSPYLNTVSIGNDVRPNYTVSSSGTNKGSVLAVCNTTYYKSNKLISKNEITLYKGFRSLSTNHKIETIVHEFGHGFGLGHVKTKNAIMLDKGFINKTKPQTDDFNGIKALYKLEHHHHHH”, the “soluble on expression in E. coli” value is “soluble”. As for “MTKSETTLSKLLVESELVQECEELLSSLPRDRSVFAEYLYQYQGFWYPPNLLEGVLYSQKHFQARDSDIVLASIPKSGTTWLKSLVFALIHRQEFQTPLVSHPLLDNNPHTLVTFIEGFHLHTQDTSPRIFSTHIPVGSLPESVKDSSCKVVYCCRNPKDAFVSLWHFMKNLIVKEMVGCTMEEMVRFFCRGSSIYGPFWDHVLQYWKESRENPKKVMFVMYEEMREQPQEWVMRIAEFLGYSFTEEEIENGVLEDIIKLCSLENLSKLEVNEKGKLLNGMETKAFFRKGEIGGWRDTLTPLLAEEIDKTTKEKLIGSDFRFFC”, the “soluble on expression in E. coli” value is recorded as “soluble”. As for “MTKTEPNNAQLDWLESESIHIIREVAAECENPALLFSGGKDSVVLLALACKAFRLGSRPVKLPFPLVHIDTGHNYPEVIAFRDAQAAKLNARLIVGRVEDSIAKGTVVLRKETDSRNAAQAVTLLETIEANGFDALMGGARRDEEKARAKERIFSFRDEFGQWDPKAQRPELWSLYNTRLHKGENMRVFPISNWTELDIWQYIARENLELPPIYYSHRREVVRRRGLLVPVTPLTPKMPSETSEILDVRFRTVGDISCTCPVESTASTPTEIIRETAVADISERSATRLDDQASEAAMEKRKKEGYF”, the “soluble on expression in E. coli” value is reported as “not soluble”.

Turning to “MTKTQLVCDKNQLNWGLKAAKAIAGKSPYDVVQMRVSPDRDYLYICAVNAEATLVAKVELLVANISSEEDEIITIDKAKIPALILATAETGKKSEDSRPMAGICIRGKEVDFTDENGAGRGVDLTTIHRNDSAEIGDPVRTIIRVKQ”, the “soluble on expression in E. coli” value is reported as “not soluble”. Consider “MTKVTHLPADDRSCGWYHLSPPRRPKPAHYGRSAARWVVVGAGFTGLAAARQLALHFPDEEIVLVEAQEVGFGTAGRNAGFAIDLPHDIGADDYIGDIATARIGLKLNLAGQSLLREQVQRHAIDCQMKACGKYQAAVEARGVAVLDAYRRGLDRLGQAYEVIEADDLPGNIGTAFYRKALFTPGTLLVQPSALVKGLADSLPGNVSLYEHTPITAVEYGDRTLLSHPHGSILADRLVLANNAFGMSFGFLQGRMLPIFTYASLTRPLDAEEQARLGGRPYWGLIPANPYGTTVRRTPDNRLLIRNSFSFNPDGRSAGKYLERFAVRHRASFRQRFPMLPEVGFDYTWGGSLALSRNHMGHFGELAPNVYGALCCNGLGVTRGTVTGKLLADWLAGERNELIDFLLRAPGPSGNPPEPLLSLGVNLNLRWGQYRAGRESLEHHHHHH”, for which the “soluble on expression in E. coli” value is recorded as “not soluble”.

Regarding “MTKVTREEVEHIANLARLQISPEETEEMANTLESILDFAKQNDSADTEGVEPTYHVLDLQNVLREDKAIKGIPQELALKNAKETEDGQFKVPTIMNEEDA”, the “soluble on expression in E. coli” value is reported as “soluble”.

For the sequence “MTLDELNRLLDPQVLALIDAHASDDPATFAMQFHGRGDLPVRAIAEQIACRKKAAAKLPSLSRFPMLYTRL”, the “soluble on expression in E. coli” value is reported as “not soluble”.
